The text below walks through data of doi:10.1101/2022.05.18.492574.

This assay addresses GyrA14 (UniProt P0AES4). The experiment in a line: SEC-MALS. For orientation: SEC sorts molecules by how far they enter the pores of the column.

Regarding “GyrA14 (from UniProt P0AES4 363-494) (domain or fragment)”, the stoichiometry N (in general, the number of molecules, sites or subunits per partner or assembly) was determined as 2.
